# Measurements taken from patent publication US20230035659A1, “Compositions and Methods for TTR Gene Editing and Treating ATTR Amyloidosis Comprising a Corticosteroid or Use Thereof” (Intellia Therapeutics, Inc., priority 2019, published 2023).
# Strand notation (5' to 3'): a small letter for the sugar, then the base; units joined by * are phosphorothioate-linked, units joined directly phosphodiester-linked; [ ] holds rarer units or linkages, { } end groups; capitals alone tell only the bases. m = 2'-O-methyl; r = 2'-OH (RNA)
# B1: G000499: TTR sgRNA modified sequence, Human, SEQ ID NO: 106; guide sequence of CR005303 (nucleic acid)
# guide: mU*mG*mA*rArUrCrCrArArGrUrGrUrCrCrUrCrUrGrArGrUrUrUrUrArGrAmGmCmUmAmGmAmAmAmUmAmGmCrArArGrUrUrArArArArUrArArGrGrCrUrArGrUrCrCrGrUrUrArUrCrAmAmCmUmUmGmAmAmAmAmAmGmUmGmGmCmAmCmCmGmAmGmUmCmGmGmUmGmCmU*mU*mU*mU
# B2: G000500: TTR sgRNA modified sequence, Human, SEQ ID NO: 107; guide sequence of CR003337 (nucleic acid)
# guide: mC*mC*mA*rGrUrCrCrArGrCrArArGrGrCrArGrArGrGrGrUrUrUrUrArGrAmGmCmUmAmGmAmAmAmUmAmGmCrArArGrUrUrArArArArUrArArGrGrCrUrArGrUrCrCrGrUrUrArUrCrAmAmCmUmUmGmAmAmAmAmAmGmUmGmGmCmAmCmCmGmAmGmUmCmGmGmUmGmCmU*mU*mU*mU
# B3: G000484: TTR sgRNA modified sequence, Human, SEQ ID NO: 91; guide sequence of CR003367 (nucleic acid)
# guide: mA*mG*mA*rCrArCrCrArArArUrCrUrUrArCrUrGrGrArGrUrUrUrUrArGrAmGmCmUmAmGmAmAmAmUmAmGmCrArArGrUrUrArArArArUrArArGrGrCrUrArGrUrCrCrGrUrUrArUrCrAmAmCmUmUmGmAmAmAmAmAmGmUmGmGmCmAmCmCmGmAmGmUmCmGmGmUmGmCmU*mU*mU*mU
# B4: G000570: TTR sgRNA modified sequence, Human, SEQ ID NO: 111; guide sequence of CR003347 (nucleic acid)
# guide: mC*mA*mU*rUrGrArUrGrGrCrArGrGrArCrUrGrCrCrUrGrUrUrUrUrArGrAmGmCmUmAmGmAmAmAmUmAmGmCrArArGrUrUrArArArArUrArArGrGrCrUrArGrUrCrCrGrUrUrArUrCrAmAmCmUmUmGmAmAmAmAmAmGmUmGmGmCmAmCmCmGmAmGmUmCmGmGmUmGmCmU*mU*mU*mU
# B5: G000482: TTR sgRNA modified sequence, Human, SEQ ID NO: 89; guide sequence of CR003365 (nucleic acid)
# guide: mU*mG*mU*rArGrArArGrGrGrArUrArUrArCrArArArGrGrUrUrUrUrArGrAmGmCmUmAmGmAmAmAmUmAmGmCrArArGrUrUrArArArArUrArArGrGrCrUrArGrUrCrCrGrUrUrArUrCrAmAmCmUmUmGmAmAmAmAmAmGmUmGmGmCmAmCmCmGmAmGmUmCmGmGmUmGmCmU*mU*mU*mU
# B6: G000483: TTR sgRNA modified sequence, Human, SEQ ID NO: 90; guide sequence of CR005298 (nucleic acid)
# guide: mU*mC*mC*rArCrUrCrArUrUrCrUrUrGrGrCrArGrGrArGrUrUrUrUrArGrAmGmCmUmAmGmAmAmAmUmAmGmCrArArGrUrUrArArArArUrArArGrGrCrUrArGrUrCrCrGrUrUrArUrCrAmAmCmUmUmGmAmAmAmAmAmGmUmGmGmCmAmCmCmGmAmGmUmCmGmGmUmGmCmU*mU*mU*mU
# B7: G000481: TTR sgRNA modified sequence, Human, SEQ ID NO: 88; guide sequence of CR003345 (nucleic acid)
# guide: UCUAGAACUUUGACCAUCAGGUUUUAGAGCUAGAAAUAGCAAGUUAAAAUAAGGCUAGUCCGUUAUCAACUUGAAAAAGUGGCACCGAGUCGGUGCUUUU
# modifications: sugars from the 5' end m3 r25 m12 r28 m32, backbone not given here; further chemistry not fully specified
# B8: G000488: TTR sgRNA modified sequence, Human, SEQ ID NO: 95; guide sequence of CR003346 (nucleic acid)
# guide: mA*mA*mA*rGrUrUrCrUrArGrArUrGrCrUrGrUrCrCrGrGrUrUrUrUrArGrAmGmCmUmAmGmAmAmAmUmAmGmCrArArGrUrUrArArArArUrArArGrGrCrUrArGrUrCrCrGrUrUrArUrCrAmAmCmUmUmGmAmAmAmAmAmGmUmGmGmCmAmCmCmGmAmGmUmCmGmGmUmGmCmU*mU*mU*mU
# B9: G000490: TTR sgRNA modified sequence, Human, SEQ ID NO: 97; guide sequence of CR003366 (nucleic acid)
# guide: mA*mA*mA*rUrArGrArCrArCrCrArArArUrCrUrUrArCrGrUrUrUrUrArGrAmGmCmUmAmGmAmAmAmUmAmGmCrArArGrUrUrArArArArUrArArGrGrCrUrArGrUrCrCrGrUrUrArUrCrAmAmCmUmUmGmAmAmAmAmAmGmUmGmGmCmAmCmCmGmAmGmUmCmGmGmUmGmCmU*mU*mU*mU
# B10: G000572: TTR sgRNA modified sequence, Human, SEQ ID NO: 113; guide sequence of CR003385 (nucleic acid)
# guide: mC*mC*mC*rCrUrArCrUrCrCrUrArUrUrCrCrArCrCrArGrUrUrUrUrArGrAmGmCmUmAmGmAmAmAmUmAmGmCrArArGrUrUrArArArArUrArArGrGrCrUrArGrUrCrCrGrUrUrArUrCrAmAmCmUmUmGmAmAmAmAmAmGmUmGmGmCmAmCmCmGmAmGmUmCmGmGmUmGmCmU*mU*mU*mU
# B11: G000494: TTR sgRNA modified sequence, Human, SEQ ID NO: 101; guide sequence of CR003360 (nucleic acid)
# guide: mG*mU*mG*rArGrUrCrUrGrGrArGrArGrCrUrGrCrArUrGrUrUrUrUrArGrAmGmCmUmAmGmAmAmAmUmAmGmCrArArGrUrUrArArArArUrArArGrGrCrUrArGrUrCrCrGrUrUrArUrCrAmAmCmUmUmGmAmAmAmAmAmGmUmGmGmCmAmCmCmGmAmGmUmCmGmGmUmGmCmU*mU*mU*mU
# B12: G000493: TTR sgRNA modified sequence, Human, SEQ ID NO: 100; guide sequence of CR003368 (nucleic acid)
# guide: mA*mA*mG*rUrGrCrCrUrUrCrCrArGrUrArArGrArUrUrGrUrUrUrUrArGrAmGmCmUmAmGmAmAmAmUmAmGmCrArArGrUrUrArArArArUrArArGrGrCrUrArGrUrCrCrGrUrUrArUrCrAmAmCmUmUmGmAmAmAmAmAmGmUmGmGmCmAmCmCmGmAmGmUmCmGmGmUmGmCmU*mU*mU*mU
# B13: G000568: TTR sgRNA modified sequence, Human, SEQ ID NO: 110; guide sequence of CR003391 (nucleic acid)
# guide: mG*mG*mC*rUrGrUrCrGrUrCrArCrCrArArUrCrCrCrArGrUrUrUrUrArGrAmGmCmUmAmGmAmAmAmUmAmGmCrArArGrUrUrArArArArUrArArGrGrCrUrArGrUrCrCrGrUrUrArUrCrAmAmCmUmUmGmAmAmAmAmAmGmUmGmGmCmAmCmCmGmAmGmUmCmGmGmUmGmCmU*mU*mU*mU
# B14: G000489: TTR sgRNA modified sequence, Human, SEQ ID NO: 96; guide sequence of CR003344 (nucleic acid)
# guide: mU*mU*mU*rGrArCrCrArUrCrArGrArGrGrArCrArCrUrGrUrUrUrUrArGrAmGmCmUmAmGmAmAmAmUmAmGmCrArArGrUrUrArArArArUrArArGrGrCrUrArGrUrCrCrGrUrUrArUrCrAmAmCmUmUmGmAmAmAmAmAmGmUmGmGmCmAmCmCmGmAmGmUmCmGmGmUmGmCmU*mU*mU*mU
# B15: G000502: TTR Cyno specific sgRNA modified sequence, SEQ ID NO: 114; guide sequence of CR000689; cross homologous between mouse and cyno (nucleic acid)
# guide: mA*mC*mA*rCrArArArUrArCrCrArGrUrCrCrArGrCrGrGrUrUrUrUrArGrAmGmCmUmAmGmAmAmAmUmAmGmCrArArGrUrUrArArArArUrArArGrGrCrUrArGrUrCrCrGrUrUrArUrCrAmAmCmUmUmGmAmAmAmAmAmGmUmGmGmCmAmCmCmGmAmGmUmCmGmGmUmGmCmU*mU*mU*mU
# Tested on: TTR
# Assay: TTR editing dose response (EC50, maximum editing) in primary human hepatocytes treated with LNP formulated U-depleted Spy Cas9 mRNA and sgRNAs
# Assay type: cell-based
# Settings: LNP formulated U-depleted Spy Cas9 mRNA and human specific sgRNAs, dose response
# Protocol: Primary liver hepatocytes. Primary human liver hepatocytes (PHH) and primary cynomolgus liver hepatocytes (PCH) (Gibco) were cultured per the manufacturer's protocol (Invitrogen, protocol 11.28.2012). In brief, the cells were thawed and resuspended in hepatocyte thawing medium with supplements (Gibco, Cat. CM7000) followed by centrifugation at 100 g for 10 minutes for human and 80 g for 4 minutes for cyno. The supernatant was discarded and the pelleted cells resuspended in hepatocyte plating medium plus supplement pack (Invitrogen, Cat. A1217601 and CM3000). Cells were counted and plated on Bio-coat collagen I coated 96-well plates (ThermoFisher, Cat. 877272) at a density of 33,000 cells/well for human or 60,000 cells/well for cyno (or 65,000 cells/well when assaying effects on TTR protein, described further below). Plated cells were allowed to settle and adhere for 6 or 24 hours in a tissue culture incubator at 37° C. and 5% CO2 atmosphere. After incubation cells were checked for monolayer formation and media was replaced with hepatocyte culture medium with serum-free supplement pack (Invitrogen, Cat. A1217601 and CM4000).
# For LNPs prepared using the cross-flow technique, the LNPs were formed by impinging jet mixing of the lipid in ethanol with two volumes of RNA solutions and one volume of water. The lipid in ethanol is mixed through a mixing cross with the two volumes of RNA solution. A fourth stream of water is mixed with the outlet stream of the cross through an inline tee. (See WO2016010840 FIG. 2.) The LNPs were held for 1 hour at room temperature, and further diluted with water (approximately 1:1 v/v). Diluted LNPs were concentrated using tangential flow filtration on a flat sheet cartridge (Sartorius, 100 kD MWCO) and then buffer exchanged by diafiltration into 50 mM Tris, 45 mM NaCl, 5% (w/v) sucrose, pH 7.5 (TSS). Alternatively, the final buffer exchange into TSS was completed with PD-10 desalting columns (GE). If required, formulations were concentrated by centrifugation with Amicon 100 kDa centrifugal filters (Millipore). The resulting mixture was then filtered using a 0.2 μm sterile filter. The final LNP was stored at 4° C. or −80° C. until further use.
# Additional PCR was performed per the manufacturer's protocols (Illumina) to add chemistry for sequencing. The amplicons were sequenced on an Illumina MiSeq instrument. The reads were aligned to a reference genome (e.g., the human reference genome (hg38), the cynomologus reference genome (mf5), the rat reference genome (rn6), or the mouse reference genome (mm10)) after eliminating those having low quality scores. The resulting files containing the reads were mapped to the reference genome (BAM files), where reads that overlapped the target region of interest were selected and the number of wild type reads versus the number of reads which contain an insertion, substitution, or deletion was calculated.
# The editing percentage (e.g., the “editing efficiency” or “percent editing” or “indel frequency”) is defined as the total number of sequence reads with insertions/deletions (“indels”) or substitutions over the total number of sequence reads, including wild type.
# Lipid nanoparticle formulations of modified sgRNAs targeting human TTR and the cyno matched sgRNA sequences were tested on primary human hepatocytes and primary cyno hepatocytes in a dose response curve. Primary human and cyno hepatocytes were plated as described in Example 1. Both cell lines were incubated at 37° C., 5% CO2 for 24 hours prior to treatment with LNPs. The LNPs used in the experiments detailed in Tables 20-22 were prepared using the cross-flow procedure described above but purified using PD-10 columns (GE Healthcare Life Sciences) and concentrated using Amicon centrifugal filter units (Millipore Sigma), each containing the specified sgRNA and Cas9 mRNA (SEQ ID NO:1). […] LNPs were incubated in hepatocyte maintenance media containing 6% cyno serum at 37° C., 5% CO2 for 5 minutes. […]
row,Molecule,Max Editing [%]
1,B1,96.31
2,B2,88.70
3,B3,94.14
4,B4,98.22
5,B5,97.02
6,B6,77.39
7,B7,87.05
8,B8,95.83
9,B9,94.16
10,B10,97.94
11,B11,75.70
12,B12,63.95
13,B13,95.72
14,B14,86.33

# Same assay, conditions: LNP with U-depleted Spy Cas9 mRNA and cyno specific sgRNA, 8 point 3-fold dose response starting at 300 ng mRNA, 72 hours
row,Molecule,Max Editing [%]
1,B15,91.5
